Data published in the supplement of paper PMC12855868.

B1: library; numbered along this chain (parent)
chain: MAAAGGARLLRAASAVLGGPAGRWLHHAGSRAGSSGLLRNRGPGGSAEASRSLSVSARARSSSEDKITVHFINRDGETLTTKGKVGDSLLDVVVENNLDIDGFGACEGTLACSTCHLIFEDHIYEKLDAITDEENDMLDLAYGLTDRSRLGCQICLTKSMDNMTVRVPETVADARQSIDVGKTS

Variants of: B1
Assay: scaled log2 fold change in cell abundance, elesclomol vs control (0 = silent mean, 1 = nonsense mean) (scaled log2 ratio); higher = higher viability under elesclomol (loss of FDX1 cuproptosis function)
Conditions: glucose 10 mM
Protocol: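 Deep mutational scan of full-length human FDX1: a pooled saturation-mutagenesis ORF library (every residue 2-184 mutated to all 19 amino acids plus stop, and silent codons where available) was expressed by lentivirus in FDX1-knockout ABC1 (14 days) or HEK293T (11 days) cells grown with elesclomol (ES) or DMSO control. Variant abundance came from ORF sequencing. The log2 fold change (ES vs control, mean of duplicates) was centred on the silent-variant mean (0) and scaled to the nonsense-variant mean (1). Higher values mean greater viability under ES, i.e. loss of FDX1 function in cuproptosis.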

[1] = with ABC1 FDX1 KO, elesclomol 5 nM, 14 days
[2] = with HEK293T FDX1 KO, elesclomol 40 nM, 11 days
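Also: variant abundance is its share of total variant reads in each endpoint sample, from next-generation sequencing of the integrated ORF PCR-amplified out of genomic DNA.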

For MAAAGGARLLRAASKVLGGPAGRWLHHAGSRAGSSGLLRNRGPGGSAEASRSLSVSARARSSSEDKITVHFINRDGETLTTKGKVGDSLLDVVVENNLDIDGFGACEGTLACSTCHLIFEDHIYEKLDAITDEENDMLDLAYGLTDRSRLGCQICLTKSMDNMTVRVPETVADARQSIDVGKTS, the “scaled log2 fold change” value [1] was -0.22 and the “scaled log2 fold change” value [2] was -0.495.

With MAAAGGARLLRAASSVLGGPAGRWLHHAGSRAGSSGLLRNRGPGGSAEASRSLSVSARARSSSEDKITVHFINRDGETLTTKGKVGDSLLDVVVENNLDIDGFGACEGTLACSTCHLIFEDHIYEKLDAITDEENDMLDLAYGLTDRSRLGCQICLTKSMDNMTVRVPETVADARQSIDVGKTS the “scaled log2 fold change” value [1] was 0.137 and the “scaled log2 fold change” value [2] was 0.0336.

For MAAAGGARLLRAASGVLGGPAGRWLHHAGSRAGSSGLLRNRGPGGSAEASRSLSVSARARSSSEDKITVHFINRDGETLTTKGKVGDSLLDVVVENNLDIDGFGACEGTLACSTCHLIFEDHIYEKLDAITDEENDMLDLAYGLTDRSRLGCQICLTKSMDNMTVRVPETVADARQSIDVGKTS, the “scaled log2 fold change” value [1] was -0.419 and the “scaled log2 fold change” value [2] was 0.437.

In the case of MAAAGGARLLRAASEVLGGPAGRWLHHAGSRAGSSGLLRNRGPGGSAEASRSLSVSARARSSSEDKITVHFINRDGETLTTKGKVGDSLLDVVVENNLDIDGFGACEGTLACSTCHLIFEDHIYEKLDAITDEENDMLDLAYGLTDRSRLGCQICLTKSMDNMTVRVPETVADARQSIDVGKTS, the “scaled log2 fold change” value [1] is reported as 0.311 and the “scaled log2 fold change” value [2] is reported as -0.231.

With MAAAGGARLLRAASVVLGGPAGRWLHHAGSRAGSSGLLRNRGPGGSAEASRSLSVSARARSSSEDKITVHFINRDGETLTTKGKVGDSLLDVVVENNLDIDGFGACEGTLACSTCHLIFEDHIYEKLDAITDEENDMLDLAYGLTDRSRLGCQICLTKSMDNMTVRVPETVADARQSIDVGKTS the “scaled log2 fold change” value [1] was 0.02.

For MAAAGGARLLRAASHVLGGPAGRWLHHAGSRAGSSGLLRNRGPGGSAEASRSLSVSARARSSSEDKITVHFINRDGETLTTKGKVGDSLLDVVVENNLDIDGFGACEGTLACSTCHLIFEDHIYEKLDAITDEENDMLDLAYGLTDRSRLGCQICLTKSMDNMTVRVPETVADARQSIDVGKTS, the “scaled log2 fold change” value [1] was 0.0941 and the “scaled log2 fold change” value [2] was -0.215.

For MAAAGGARLLRAASIVLGGPAGRWLHHAGSRAGSSGLLRNRGPGGSAEASRSLSVSARARSSSEDKITVHFINRDGETLTTKGKVGDSLLDVVVENNLDIDGFGACEGTLACSTCHLIFEDHIYEKLDAITDEENDMLDLAYGLTDRSRLGCQICLTKSMDNMTVRVPETVADARQSIDVGKTS, the “scaled log2 fold change” value [1] was -0.367 and the “scaled log2 fold change” value [2] was -0.0209.

In the case of MAAAGGARLLRAASMVLGGPAGRWLHHAGSRAGSSGLLRNRGPGGSAEASRSLSVSARARSSSEDKITVHFINRDGETLTTKGKVGDSLLDVVVENNLDIDGFGACEGTLACSTCHLIFEDHIYEKLDAITDEENDMLDLAYGLTDRSRLGCQICLTKSMDNMTVRVPETVADARQSIDVGKTS, the “scaled log2 fold change” value [1] is reported as -0.0208 and the “scaled log2 fold change” value [2] is reported as 0.445.

For MAAAGGARLLRAASFVLGGPAGRWLHHAGSRAGSSGLLRNRGPGGSAEASRSLSVSARARSSSEDKITVHFINRDGETLTTKGKVGDSLLDVVVENNLDIDGFGACEGTLACSTCHLIFEDHIYEKLDAITDEENDMLDLAYGLTDRSRLGCQICLTKSMDNMTVRVPETVADARQSIDVGKTS, the “scaled log2 fold change” value [1] was -0.0557 and the “scaled log2 fold change” value [2] was -0.87.

With MAAAGGARLLRAASNVLGGPAGRWLHHAGSRAGSSGLLRNRGPGGSAEASRSLSVSARARSSSEDKITVHFINRDGETLTTKGKVGDSLLDVVVENNLDIDGFGACEGTLACSTCHLIFEDHIYEKLDAITDEENDMLDLAYGLTDRSRLGCQICLTKSMDNMTVRVPETVADARQSIDVGKTS the “scaled log2 fold change” value [1] was -0.0399 and the “scaled log2 fold change” value [2] was -0.856.

MAAAGGARLLRAASDVLGGPAGRWLHHAGSRAGSSGLLRNRGPGGSAEASRSLSVSARARSSSEDKITVHFINRDGETLTTKGKVGDSLLDVVVENNLDIDGFGACEGTLACSTCHLIFEDHIYEKLDAITDEENDMLDLAYGLTDRSRLGCQICLTKSMDNMTVRVPETVADARQSIDVGKTS was tested, and the “scaled log2 fold change” value [1] was 0.405 and the “scaled log2 fold change” value [2] was 0.431.

In the case of MAAAGGARLLRAASTVLGGPAGRWLHHAGSRAGSSGLLRNRGPGGSAEASRSLSVSARARSSSEDKITVHFINRDGETLTTKGKVGDSLLDVVVENNLDIDGFGACEGTLACSTCHLIFEDHIYEKLDAITDEENDMLDLAYGLTDRSRLGCQICLTKSMDNMTVRVPETVADARQSIDVGKTS, the “scaled log2 fold change” value [1] is reported as 0.322 and the “scaled log2 fold change” value [2] is reported as -0.179.

For MAAAGGARLLRAASLVLGGPAGRWLHHAGSRAGSSGLLRNRGPGGSAEASRSLSVSARARSSSEDKITVHFINRDGETLTTKGKVGDSLLDVVVENNLDIDGFGACEGTLACSTCHLIFEDHIYEKLDAITDEENDMLDLAYGLTDRSRLGCQICLTKSMDNMTVRVPETVADARQSIDVGKTS, the “scaled log2 fold change” value [1] was -0.153 and the “scaled log2 fold change” value [2] was -0.301.

For MAAAGGARLLRAASWVLGGPAGRWLHHAGSRAGSSGLLRNRGPGGSAEASRSLSVSARARSSSEDKITVHFINRDGETLTTKGKVGDSLLDVVVENNLDIDGFGACEGTLACSTCHLIFEDHIYEKLDAITDEENDMLDLAYGLTDRSRLGCQICLTKSMDNMTVRVPETVADARQSIDVGKTS, the “scaled log2 fold change” value [1] was 0.0842 and the “scaled log2 fold change” value [2] was -0.229.

With MAAAGGARLLRAASQVLGGPAGRWLHHAGSRAGSSGLLRNRGPGGSAEASRSLSVSARARSSSEDKITVHFINRDGETLTTKGKVGDSLLDVVVENNLDIDGFGACEGTLACSTCHLIFEDHIYEKLDAITDEENDMLDLAYGLTDRSRLGCQICLTKSMDNMTVRVPETVADARQSIDVGKTS the “scaled log2 fold change” value [1] was 0.208 and the “scaled log2 fold change” value [2] was 0.886.

With MAAAGGARLLRAASPVLGGPAGRWLHHAGSRAGSSGLLRNRGPGGSAEASRSLSVSARARSSSEDKITVHFINRDGETLTTKGKVGDSLLDVVVENNLDIDGFGACEGTLACSTCHLIFEDHIYEKLDAITDEENDMLDLAYGLTDRSRLGCQICLTKSMDNMTVRVPETVADARQSIDVGKTS the “scaled log2 fold change” value [1] was 0.172 and the “scaled log2 fold change” value [2] was 0.337.

In the case of MAAAGGARLLRAASYVLGGPAGRWLHHAGSRAGSSGLLRNRGPGGSAEASRSLSVSARARSSSEDKITVHFINRDGETLTTKGKVGDSLLDVVVENNLDIDGFGACEGTLACSTCHLIFEDHIYEKLDAITDEENDMLDLAYGLTDRSRLGCQICLTKSMDNMTVRVPETVADARQSIDVGKTS, the “scaled log2 fold change” value [1] is reported as -0.822.
